Measured values: patent US20150344570A1 (published 2015)

What follows are binders tested against T1, FcγRIa (human, UniProt P12314 16-292) (assay: SPR (Biacore), captured antibody, FcγRIa analyte; relative to HoCon Ab GpH7-B3/GpL16-k0 = 100).
T1 construct: extracellular domain; soluble extracellular domain with C-terminal His tag, expressed in FreeStyle293 cells; also called FcgRI; FcgRIa
T1 sequence (P12314 16-292): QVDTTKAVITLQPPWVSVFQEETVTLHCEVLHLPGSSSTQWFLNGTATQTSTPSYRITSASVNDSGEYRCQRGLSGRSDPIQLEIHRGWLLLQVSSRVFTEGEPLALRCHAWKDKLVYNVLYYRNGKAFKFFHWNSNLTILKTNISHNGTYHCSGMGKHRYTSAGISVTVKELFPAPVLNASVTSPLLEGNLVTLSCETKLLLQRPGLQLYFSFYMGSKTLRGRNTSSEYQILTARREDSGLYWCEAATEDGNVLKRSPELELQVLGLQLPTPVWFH

Ho/Con_1a	Binder
107 % of control	GpH7-B3 variant I336_10E/GpL16-k0 (antibody, human IgG1, kappa, homodimerized IgG1, mutation in both H chains; also called Ho Ab) heavy: not shown light: DIVMTQSPLSLPVTPGEPASISCQASESLVHSNRNTYLHWYLQKPGQSPQLLIYKVSNRFSGVPDRFSGSGSGTDFTLKISRVEAEDVGVYYCSQNTHVPPTFGQGTKVEIERTVAAPSVFIFPPSDEQLKSGTASVVCLLNNFYPREAKVQWKVDNALQSGNSQESVTEQDSKDSTYSLSSTLTLSKADYEKHKVYACEVTHQGLSSPVTKSFNRGEC
105 % of control	GpH7-B3 variant I336_03V/GpL16-k0 (antibody, human IgG1, kappa, homodimerized IgG1, mutation in both H chains; also called Ho Ab) heavy: not shown light: DIVMTQSPLSLPVTPGEPASISCQASESLVHSNRNTYLHWYLQKPGQSPQLLIYKVSNRFSGVPDRFSGSGSGTDFTLKISRVEAEDVGVYYCSQNTHVPPTFGQGTKVEIERTVAAPSVFIFPPSDEQLKSGTASVVCLLNNFYPREAKVQWKVDNALQSGNSQESVTEQDSKDSTYSLSSTLTLSKADYEKHKVYACEVTHQGLSSPVTKSFNRGEC
104 % of control	GpH7-B3 variant I336_06M/GpL16-k0 (antibody, human IgG1, kappa, homodimerized IgG1, mutation in both H chains; also called Ho Ab) heavy: not shown light: DIVMTQSPLSLPVTPGEPASISCQASESLVHSNRNTYLHWYLQKPGQSPQLLIYKVSNRFSGVPDRFSGSGSGTDFTLKISRVEAEDVGVYYCSQNTHVPPTFGQGTKVEIERTVAAPSVFIFPPSDEQLKSGTASVVCLLNNFYPREAKVQWKVDNALQSGNSQESVTEQDSKDSTYSLSSTLTLSKADYEKHKVYACEVTHQGLSSPVTKSFNRGEC
104 % of control	GpH7-B3 variant I336_04F/GpL16-k0 (antibody, human IgG1, kappa, homodimerized IgG1, mutation in both H chains; also called Ho Ab) heavy: not shown light: DIVMTQSPLSLPVTPGEPASISCQASESLVHSNRNTYLHWYLQKPGQSPQLLIYKVSNRFSGVPDRFSGSGSGTDFTLKISRVEAEDVGVYYCSQNTHVPPTFGQGTKVEIERTVAAPSVFIFPPSDEQLKSGTASVVCLLNNFYPREAKVQWKVDNALQSGNSQESVTEQDSKDSTYSLSSTLTLSKADYEKHKVYACEVTHQGLSSPVTKSFNRGEC

Further lines, the binder ahead of its results:

Binder	Ho/Con_1a
GpH7-B3 variant P271_02A/GpL16-k0 (antibody, human IgG1, kappa, homodimerized IgG1, mutation in both H chains; also called Ho Ab) heavy: not shown light: DIVMTQSPLSLPVTPGEPASISCQASESLVHSNRNTYLHWYLQKPGQSPQLLIYKVSNRFSGVPDRFSGSGSGTDFTLKISRVEAEDVGVYYCSQNTHVPPTFGQGTKVEIERTVAAPSVFIFPPSDEQLKSGTASVVCLLNNFYPREAKVQWKVDNALQSGNSQESVTEQDSKDSTYSLSSTLTLSKADYEKHKVYACEVTHQGLSSPVTKSFNRGEC	102 % of control
GpH7-B3 variant I336_01G/GpL16-k0 (antibody, human IgG1, kappa, homodimerized IgG1, mutation in both H chains; also called Ho Ab) heavy: not shown light: DIVMTQSPLSLPVTPGEPASISCQASESLVHSNRNTYLHWYLQKPGQSPQLLIYKVSNRFSGVPDRFSGSGSGTDFTLKISRVEAEDVGVYYCSQNTHVPPTFGQGTKVEIERTVAAPSVFIFPPSDEQLKSGTASVVCLLNNFYPREAKVQWKVDNALQSGNSQESVTEQDSKDSTYSLSSTLTLSKADYEKHKVYACEVTHQGLSSPVTKSFNRGEC	104 % of control
GpH7-B3 variant G236_20W/GpL16-k0 (antibody, human IgG1, kappa, homodimerized IgG1, mutation in both H chains; also called Ho Ab) heavy: not shown light: DIVMTQSPLSLPVTPGEPASISCQASESLVHSNRNTYLHWYLQKPGQSPQLLIYKVSNRFSGVPDRFSGSGSGTDFTLKISRVEAEDVGVYYCSQNTHVPPTFGQGTKVEIERTVAAPSVFIFPPSDEQLKSGTASVVCLLNNFYPREAKVQWKVDNALQSGNSQESVTEQDSKDSTYSLSSTLTLSKADYEKHKVYACEVTHQGLSSPVTKSFNRGEC	104 % of control
GpH7-B3 variant A330_14T/GpL16-k0 (antibody, human IgG1, kappa, homodimerized IgG1, mutation in both H chains; also called Ho Ab) heavy: not shown light: DIVMTQSPLSLPVTPGEPASISCQASESLVHSNRNTYLHWYLQKPGQSPQLLIYKVSNRFSGVPDRFSGSGSGTDFTLKISRVEAEDVGVYYCSQNTHVPPTFGQGTKVEIERTVAAPSVFIFPPSDEQLKSGTASVVCLLNNFYPREAKVQWKVDNALQSGNSQESVTEQDSKDSTYSLSSTLTLSKADYEKHKVYACEVTHQGLSSPVTKSFNRGEC	105 % of control
GpH7-B3 variant A330_08L/GpL16-k0 (antibody, human IgG1, kappa, homodimerized IgG1, mutation in both H chains; also called Ho Ab) heavy: not shown light: DIVMTQSPLSLPVTPGEPASISCQASESLVHSNRNTYLHWYLQKPGQSPQLLIYKVSNRFSGVPDRFSGSGSGTDFTLKISRVEAEDVGVYYCSQNTHVPPTFGQGTKVEIERTVAAPSVFIFPPSDEQLKSGTASVVCLLNNFYPREAKVQWKVDNALQSGNSQESVTEQDSKDSTYSLSSTLTLSKADYEKHKVYACEVTHQGLSSPVTKSFNRGEC	106 % of control
